Results taken from PMC3062965 (Apoptosis : an international journal on programmed cell …, 2010).
Several values for one entry are separate records, joined by “and”; a condition that tells them apart may be missing. Identical values can stand only once.

Target: full-length RAIDD (1-199) (human, UniProt P78560 1-199)
Assay: SEC-MALS

Sequence of full-length RAIDD (1-199) (P78560 whole entry): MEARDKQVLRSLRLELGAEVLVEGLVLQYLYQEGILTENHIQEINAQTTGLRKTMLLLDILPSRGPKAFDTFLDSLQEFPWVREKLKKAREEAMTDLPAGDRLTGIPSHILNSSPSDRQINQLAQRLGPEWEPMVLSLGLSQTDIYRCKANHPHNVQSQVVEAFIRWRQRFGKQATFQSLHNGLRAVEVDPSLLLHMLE

B1: PIDD DD (777-883) (domain or fragment, human, UniProt Q9HB75 777-883, looked up)
chain: LNLGDAETGFLTQSNLLSVAGRLGLDWPAVALHLGVSYREVQRIRHEFRDDLDEQIRHMLFSWAERQAGQPGAVGLLVQALEQSDRQDVAEEVRAVLELGRRKYQDS
stoichiometry N: 7 RAIDD per complex and 5 PIDD DD per complex
